In patent US20090117153A1:
Like-named read-outs stand apart in the source and are kept apart here.

Tests used:
[1] = target: OVAp5Y.β2m.Kb Y84A SCT (mouse) (UniProt P01887)
[2] = target: OVA.β2m.Kb SCT Y84A (mouse) (UniProt P01887)
[3] = target: OVA.β2m.Kb SCT Y84A (mouse) (UniProt P01887); remark: listed apart in the source
[4] = target: native K^b on cells, loaded with endogenous peptides (mouse) (UniProt P01887); assay: cell-based or functional assay

IC50 [1] [µM]	IC50 [2] [µM]	IC50 [3] [µM]	Substance	VSV8 concentration that activates the N15 hybridoma; LM1.8 cells (FIG. 11C) [4] [nM]
40	125	1.25	SIYR peptide	–
–	–	–	VSV8 peptide	1
